This note sets out measurements from patent US20230265151A1, “GIP/GLP1 CO-AGONIST COMPOUNDS” (priority 2020, published 2023).

A word on the Ki: it is a dissociation constant, usually derived from enzyme kinetics or from competition with a known ligand. Read a low Ki as a stronger hold on the target.

Test [1] deals with human glucagon receptor (human, UniProt P47871 26-477). The test is described as follows: cell-based or functional assay.
The target in test [2] is T1, human GIP receptor (human, UniProt P48546 22-466).
T1 sequence (looked up): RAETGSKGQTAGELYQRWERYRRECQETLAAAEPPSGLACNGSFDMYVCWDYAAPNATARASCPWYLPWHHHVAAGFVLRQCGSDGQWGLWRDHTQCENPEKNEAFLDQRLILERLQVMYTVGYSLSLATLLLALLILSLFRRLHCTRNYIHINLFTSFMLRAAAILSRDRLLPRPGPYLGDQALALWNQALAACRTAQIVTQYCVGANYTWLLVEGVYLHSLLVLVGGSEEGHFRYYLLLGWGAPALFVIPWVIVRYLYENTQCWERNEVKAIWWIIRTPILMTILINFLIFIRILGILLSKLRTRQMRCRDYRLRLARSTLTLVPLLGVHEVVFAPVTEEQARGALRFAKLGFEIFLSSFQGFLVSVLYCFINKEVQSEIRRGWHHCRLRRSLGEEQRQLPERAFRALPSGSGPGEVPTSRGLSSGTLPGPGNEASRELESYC
As to the kind of experiment: cell-based or functional assay.

For test [3], the target named is human GLP-1 receptor (human, UniProt P43220 24-463). The test is described as follows: cell-based or functional assay.
The target of test [4] is T2, human glucagon receptor (human, UniProt P47871 26-477).
T2 construct: whole, on cells; also called hGCGR; hGcgR
As to the kind of experiment: SPA competition vs [125I]-Gcg, hGcgR membranes.
T2 sequence (P47871 26-477): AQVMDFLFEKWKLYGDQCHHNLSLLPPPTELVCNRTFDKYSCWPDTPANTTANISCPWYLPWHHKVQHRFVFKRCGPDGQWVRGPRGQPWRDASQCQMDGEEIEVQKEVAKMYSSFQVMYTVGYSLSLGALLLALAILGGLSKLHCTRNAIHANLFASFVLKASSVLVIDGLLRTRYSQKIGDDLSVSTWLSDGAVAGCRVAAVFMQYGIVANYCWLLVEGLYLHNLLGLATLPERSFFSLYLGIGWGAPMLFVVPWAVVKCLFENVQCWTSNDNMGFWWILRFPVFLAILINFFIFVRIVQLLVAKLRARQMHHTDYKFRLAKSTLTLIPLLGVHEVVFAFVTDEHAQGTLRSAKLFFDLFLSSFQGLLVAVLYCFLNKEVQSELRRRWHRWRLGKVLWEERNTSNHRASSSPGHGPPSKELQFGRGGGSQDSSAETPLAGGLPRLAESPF

In test [5] the target is T3, human GLP-1 receptor (human, UniProt P43220 24-463).
T3 construct: whole, on cells; also called hGLP-1R; human glucagon-like peptide-1 receptor
The test is described as follows: SPA competition vs [125I]-GLP-1, hGLP-1R membranes. In short, it runs like this: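 Competition binding in 25 mM HEPES pH 7.4, 2.5 mM CaCl₂, 1 mM MgCl₂, 0.1% bacitracin, 0.003% TWEEN-20, EDTA-free protease inhibitors. IC₅₀ from four-parameter nonlinear fit; Kᵢ given as geometric mean ± SEM, n = independent replicates on different days.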

Test [6] concerns the target T4, human GIP receptor (human, UniProt P48546 22-466).
T4 construct: whole, on cells; also called hGIPR; human glucose-dependent insulinotropic polypeptide receptor
T4 sequence (looked up): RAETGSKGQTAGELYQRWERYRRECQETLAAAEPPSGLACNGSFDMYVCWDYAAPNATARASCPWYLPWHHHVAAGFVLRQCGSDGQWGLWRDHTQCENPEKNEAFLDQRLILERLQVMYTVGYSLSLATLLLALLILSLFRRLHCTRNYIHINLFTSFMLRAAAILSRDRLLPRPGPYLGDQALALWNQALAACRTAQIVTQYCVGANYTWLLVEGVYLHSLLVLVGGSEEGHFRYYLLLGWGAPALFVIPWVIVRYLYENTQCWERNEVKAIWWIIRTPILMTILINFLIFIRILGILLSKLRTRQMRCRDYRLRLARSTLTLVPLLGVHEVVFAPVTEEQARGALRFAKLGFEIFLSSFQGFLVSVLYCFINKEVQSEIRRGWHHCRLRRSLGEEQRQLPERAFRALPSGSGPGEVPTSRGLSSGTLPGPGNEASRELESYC
The test is described as follows: SPA competition vs [125I]-GIP, hGIPR membranes.

Where only a bound is given, the exact number is not on record here.

B1: Example 218 (peptide)
peptide: YXEGTXTSDXXIXLDXIAQXKFIKXLIEGGPSSGAPPPS
modifications: Y-Aib-EGT-αMeF(2F)-TSD-4Pal-Aib-I-αMeL-LD-Orn-IAQ-Aib-K((2-[2-(2-Amino-ethoxy)-ethoxy]-acetyl)2-(γ-Glu)-CO-(CH2)12-CO2H)FIK((2-[2-(2-Amino-ethoxy)-ethoxy]-acetyl)2-(γ-Glu)-CO-(CH2)12-CO2H)-αMeY-LIEGGPSSGAPPPS-NH2
In the case of B1, the “cAMP EC50 (1.0% HSA)” value in the test with human glucagon receptor [1] is above 9.95 µM; in the test with human GIP receptor [2] it was 3.27 nM; with human GLP-1 receptor [3] it was 36.6 nM. Further, the “cAMP Emax (1.0% HSA)” value with human GIP receptor [2] is 95.9%; in the test with human GLP-1 receptor [3] it was 121%.

B2: Example 233 (peptide)
peptide: YXEGTXTSDYXIXLDXIAQXEFIKXLIKGGPSSGAPPPS
modifications: Y-Aib-EGT-αMeF(2F)-TSDY-Aib-I-αMeL-LD-Orn-IAQ-Aib-EFIK((2-[2-(2-Amino-ethoxy)-ethoxy]-acetyl)2-(γ-Glu)-CO-(CH2)12-CO2H)-αMeY-LIK((2-[2-(2-Amino-ethoxy)-ethoxy]-acetyl)2-(γ-Glu)-CO-(CH2)12-CO2H)GGPSSGAPPPS-NH2
For B2, the “cAMP EC50 (1.0% HSA)” value with human glucagon receptor [1] was above 9.95 µM; with human GIP receptor [2], 6.08 nM; with human GLP-1 receptor [3], 56.7 nM. Besides, the “cAMP Emax (1.0% HSA)” value with human GIP receptor [2] came out at 91.4%.

B3: Example 255 (peptide)
peptide: YXEGTXTSDXSIXLDXKAQXKFIXXLIEGGPSSGAPPPS
modifications: Y-Aib-EGT-αMeF(2F)-TSD-2Nal-SI-αMeL-LD-Orn-K((2-[2-(2-Amino-ethoxy)-ethoxy]-acetyl)2-CO-(CH2)12-CO2H)AQ-Aib-K((2-[2-(2-Amino-ethoxy)-ethoxy]-acetyl)2-CO-(CH2)12-CO2H)FI-(D-Glu)-αMeY-LIEGGPSSGAPPPS-NH2 …
On to B3, for which the “cAMP EC50 (1.0% HSA)” value with human glucagon receptor [1] was above 9.95 µM; with human GIP receptor [2], 2.27 nM; in the test with human GLP-1 receptor [3], 13.7 nM.

B4: Example 219 (peptide)
peptide: YXEGTXTSDXXIXLDXIAQXEFIKXLIKGGPSSGAPPPS
modifications: Y-Aib-EGT-αMeF(2F)-TSD-4Pal-Aib-I-αMeL-LD-Orn-IAQ-Aib-EFIK((2-[2-(2-Amino-ethoxy)-ethoxy]-acetyl)2-(γ-Glu)-CO-(CH2)12-CO2H)-αMeY-LIK((2-[2-(2-Amino-ethoxy)-ethoxy]-acetyl)2-(γ-Glu)-CO-(CH2)12-CO2H)GGPSSGAPPPS-NH2
For the molecule B4, the entries for the “cAMP EC50 (1.0% HSA)” value with human glucagon receptor [1], in the test with human GIP receptor [2] and with human GLP-1 receptor [3] were above 9.95 µM, 2.86 nM and 25.9 nM, respectively.

B5: Example 249 (peptide)
peptide: YXEGTXTSDXSIXLDXKAQXKFIXXLIEGGPSSGAPPPS
modifications: Y-Aib-EGT-αMeF(2F)-TSD-2Nal-SI-αMeL-LD-Orn-K((2-[2-(2-Amino-ethoxy)-ethoxy]-acetyl)2-(γ-Glu)-CO-(CH2)12-CO2H)AQ-Aib-K((2-[2-(2-Amino-ethoxy)-ethoxy]-acetyl)2-(γ-Glu)-CO-(CH2)12-CO2H)FI-(D-Glu)-αMeY-LIEGGPSSGAPPPS-NH2
In the case of B5, the “cAMP EC50 (1.0% HSA)” value with human glucagon receptor [1] was above 9.95 µM; with human GIP receptor [2] it was 5.88 nM; in the test with human GLP-1 receptor [3], 51.6 nM.

B6: Example 226 (peptide)
peptide: YXEGTXTSDXSIXLDXIAQXEFIKXLIKGGPSSGAPPPS
modifications: Y-Aib-EGT-αMeF(2F)-TSD-4Pal-SI-αMeL-LD-Orn-IAQ-Aib-EFIK((2-[2-(2-Amino-ethoxy)-ethoxy]-acetyl)3-(γ-Glu)-CO-(CH2)12-CO2H)-αMeY-LIK((2-[2-(2-Amino-ethoxy)-ethoxy]-acetyl)3-(γ-Glu)-CO-(CH2)12-CO2H)GGPSSGAPPPS-NH2
Take B6: the figures for the “cAMP EC50 (1.0% HSA)” value in the test with human glucagon receptor [1], with human GIP receptor [2] and in the test with human GLP-1 receptor [3] were above 9.95 µM, 4.86 nM and 11.3 nM, respectively.

B7: Example 222 (peptide)
peptide: YXEGTXTSDXSIXLDXIAQXKFIXXLIKGGPSSGAPPPS
modifications: Y-Aib-EGT-αMeF(2F)-TSD-4Pal-SI-αMeL-LD-Orn-IAQ-Aib-K((2-[2-(2-Amino-ethoxy)-ethoxy]-acetyl)2-CO-(CH2)12-CO2H)Fl-(D-Glu)-αMeY-LIK((2-[2-(2-Amino-ethoxy)-ethoxy]-acetyl)2-CO-(CH2)12-CO2H)GGPSSGAPPPS-NH2 …
B7: the “cAMP EC50 (1.0% HSA)” value is above 9.95 µM in the test with human glucagon receptor [1], 2.1 nM with human GIP receptor [2] and 13.8 nM with human GLP-1 receptor [3]. The “cAMP Emax (1.0% HSA)” value with human GLP-1 receptor [3] is 117%.

B8: Example 239 (peptide)
peptide: YXEGTXTSDYXIXLDXIAQXEFIKXLIKGGPSSGAPPPS
modifications: Y-Aib-EGT-αMeF(2F)-TSDY-Aib-I-αMeL-LD-Orn-IAQ-Aib-EFIK((2-[2-(2-Amino-ethoxy)-ethoxy]-acetyl)2-(γ-Glu)-(10-(4-carboxyphenoxy)decanoyl))-αMeY-LIK((2-[2-(2-Amino-ethoxy)-ethoxy]-acetyl)2-(γ-Glu)-(10-(4-carboxyphenoxy)decanoyl))GGPSSGAPPPS-NH2
In the case of B8, the results for the “cAMP EC50 (1.0% HSA)” value in the test with human glucagon receptor [1], with human GIP receptor [2] and with human GLP-1 receptor [3] were above 9.95 µM, 5.46 nM and 25.2 nM, respectively.

B9: Example 252 (peptide)
peptide: YXEGTXTSDXSIXLDXIAQXEFIKXLIKGGPSSGAPPPS
modifications: Y-Aib-EGT-αMeF(2F)-TSD-2Nal-SI-αMeL-LD-Orn-IAQ-Aib-EFIK((2-[2-(2-Amino-ethoxy)-ethoxy]-acetyl)2-(γ-Glu)-CO-(CH2)12-CO2H)-αMeY-LIK((2-[2-(2-Amino-ethoxy)-ethoxy]-acetyl)2-(γ-Glu)-CO-(CH2)12-CO2H)GGPSSGAPPPS-NH2
Take B9: the “cAMP EC50 (1.0% HSA)” value was above 9.95 µM with human glucagon receptor [1], 29.9 nM with human GIP receptor [2] and 131 nM in the test with human GLP-1 receptor [3].

B10: Y-Aib-EGT-αMeF(2F)-TSD-4Pal-SI-αMeL-LD-Orn-K((2-[2-(2-Amino-ethoxy)-ethoxy]-acetyl)2-(γ-Glu)-CO-(CH2)14-CH3)AQ-Aib-EFIK((2-[2-(2-Amino-ethoxy)-ethoxy]-acetyl)2- … (peptide)
peptide: YXEGTXTSDXSIXLDXKAQXEFIKXLIEGGPSSGAPPPS
modifications: Aib2, αMeF(2F)6, 4Pal10, αMeL13, Orn16, K17(Z1), Aib20, K24(Z1), αMeY25, C-term NH2; Z1=AEEA2-(γ-Glu)-CO-(CH2)14-CH3
Take B10: the results for the Ki with human glucagon receptor [4], with human GLP-1 receptor [5] and with human GIP receptor [6] were 0.596 nM, 0.301 nM and 0.0217 nM, respectively.

B11: Example 246 (peptide)
peptide: YXEGTXTSDXXIXLDXIAQXEFIKXLIKGGPSSGAPPPS
modifications: Y-Aib-EGT-αMeF(2F)-TSD-4Pal-Aib-I-αMeL-LD-Orn-IAQ-Aib-EFIK((2-[2-(2-Amino-ethoxy)-ethoxy]-acetyl)2-(γ-Glu)-(10-(4-carboxyphenoxy)decanoyl))-αMeY-LIK((2-[2-(2-Amino-ethoxy)-ethoxy]-acetyl)2-(γ-Glu)-(10-(4-carboxyphenoxy)decanoyl))GGPSSGAPPPS-NH2
Consider B11, for which the “cAMP EC50 (1.0% HSA)” value is above 9.95 µM with human glucagon receptor [1], 1.63 nM with human GIP receptor [2] and 22.9 nM in the test with human GLP-1 receptor [3].

B12: Example 227 (peptide)
peptide: YXEGTXTSDXSIXLDXIAQXKFIXXLIKGGPSSGAPPPS
modifications: Y-Aib-EGT-αMeF(2F)-TSD-4Pal-SI-αMeL-LD-Orn-IAQ-Aib-K((2-[2-(2-Amino-ethoxy)-ethoxy]-acetyl)3-(γ-Glu)-CO-(CH2)12-CO2H)FI-(D-Glu)-αMeY-LIK((2-[2-(2-Amino-ethoxy)-ethoxy]-acetyl)3-(γ-Glu)-CO-(CH2)12-CO2H)GGPSSGAPPPS-NH2
As to B12, the figures for the “cAMP EC50 (1.0% HSA)” value with human glucagon receptor [1], in the test with human GIP receptor [2] and with human GLP-1 receptor [3] were above 9.95 µM, 1.59 nM and 41.8 nM, respectively.

B13: Y-Aib-EGT-αMeF(2F)-TSD-4Pal-Aib-I-αMeL-LD-Orn-QAQ-Aib-4Pal-FIK((2-[2-(2-Amino-ethoxy)-ethoxy]-acetyl)2-(γ-Glu)-(10-(4-carboxyphenoxy)decanoyl))-αMeY-LIK((2-[2-( … (peptide)
peptide: YXEGTXTSDXXIXLDXQAQXXFIKXLIKGGPSSGAPPPS
modifications: Aib2, αMeF(2F)6, 4Pal10, Aib11, αMeL13, Orn16, Aib20, 4Pal21, K24(Z1), αMeY25, K28(Z1), C-term NH2; Z1=AEEA2-(γ-Glu)-(10-(4-carboxyphenoxy)decanoyl)
For the molecule B13, the figures for the Ki with human glucagon receptor [4], with human GLP-1 receptor [5] and in the test with human GIP receptor [6] were 70.1 nM, 0.25 nM and 0.0345 nM, respectively.

B14: Example 253 (peptide)
peptide: YXEGTXTSDXSIXLDXIAQXKFIXXLIKGGPSSGAPPPS
modifications: Y-Aib-EGT-αMeF(2F)-TSD-2Nal-SI-αMeL-LD-Orn-IAQ-Aib-K((2-[2-(2-Amino-ethoxy)-ethoxy]-acetyl)2-(γ-Glu)-CO-(CH2)12-CO2H)Fl-(D-Glu)-αMeY-LIK((2-[2-(2-Amino-ethoxy)-ethoxy]-acetyl)2-(γ-Glu)-CO-(CH2)12-CO2H)GGPSSGAPPPS-NH2
For B14, the “cAMP EC50 (1.0% HSA)” value was above 9.95 µM with human glucagon receptor [1], 21.7 nM in the test with human GIP receptor [2] and 192 nM with human GLP-1 receptor [3].
